Laboratory results: PMC5330652 (Journal of the American Chemical Society, 2017)

Target: the molecule itself
Assay: negative-stain TEM + dynamic light scattering

B1: cowpea chlorotic mottle virus (CCMV) capsid protein (natural protein)
chain: MSTVGTGKLTRAQRRAAARKNKRNTRVVQPVIVEPIASGQGKAIKAWTGYSVSKWTASCAAAEAKVTSAITISLPNELSSERNKQLKVGRVLLWLGLLPSVSGTVKSCVTETQTTAAASFQVALAVADNSKDVVAAMYPEAFKGITLEQLTADLTIYLYSSAALTEGDVIVHLEVEHVRPTFDDSFTPVY
- stoichiometry N: 60
